Biological target: T1, DLL3 (Homo sapiens, UniProt Q9NYJ7)
T1 sequence (Q9NYJ7 27-618): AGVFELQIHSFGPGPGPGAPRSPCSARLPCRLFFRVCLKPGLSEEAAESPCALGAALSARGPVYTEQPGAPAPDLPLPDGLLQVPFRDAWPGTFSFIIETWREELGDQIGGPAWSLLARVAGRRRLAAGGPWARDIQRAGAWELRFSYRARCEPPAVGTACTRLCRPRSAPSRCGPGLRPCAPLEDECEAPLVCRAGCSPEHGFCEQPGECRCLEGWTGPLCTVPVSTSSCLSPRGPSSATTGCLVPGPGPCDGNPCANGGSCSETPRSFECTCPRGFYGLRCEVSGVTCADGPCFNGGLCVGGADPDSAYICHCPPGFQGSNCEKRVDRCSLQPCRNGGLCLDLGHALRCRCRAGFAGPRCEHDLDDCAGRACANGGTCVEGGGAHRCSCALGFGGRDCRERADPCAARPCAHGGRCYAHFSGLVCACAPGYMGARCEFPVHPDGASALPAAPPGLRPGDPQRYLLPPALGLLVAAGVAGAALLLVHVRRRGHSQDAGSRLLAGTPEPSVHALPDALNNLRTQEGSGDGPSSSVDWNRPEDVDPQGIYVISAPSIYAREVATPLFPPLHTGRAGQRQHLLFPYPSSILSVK
Assay: Binning (competitive antibody binding)
From the text: It is also possible to characterize the antibodies of the invention in terms of the group or “bin” to which they belong. “Binning” refers to the use of competitive antibody binding assays to identify pairs of antibodies that are incapable of binding an immunogenic determinant simultaneously, thereby identifying antibodies that “compete” for binding. Competing antibodies may be determined by an assay in which the antibody or immunologically functional fragment being tested prevents or inhibits specific binding of a reference antibody to a common antigen. Typically, such an assay involves the use of purified antigen (e.g., DLL3, ASCL1, or a domain or fragment thereof) bound to a solid surface or cells, an unlabeled test antibody and a labeled reference antibody. Competitive inhibition is measured by determining the amount of label bound to the solid surface or cells in the presence of the test antibody. Additional details regarding methods for determining competitive binding are provided in the Examples herein. […]
A schematic summary of the domain-level epitope mapping data of the antibodies tested is presented in FIG. 2, with antibodies binding a linear epitope underlined and, where determined, the corresponding bin noted in parenthesis. […]

B1: SC16.23: murine anti-DLL3 antibody (antibody, V domains shown)
VL: QIVLTQSPAIMSASPGEKVTLTCSASSSVSSRYLYWYQQKPGSSPKLWIYSTSNLASGVPARFSGSGSGTSYSLIISSMEAEDAASYFCHQWSNYPLTFGAGTKLELK
VH: QVTLKESGPGILQPSQTLSLTCSFSGFSLSTSNTGIGWIRQPSGTGLEWLAHIWWNDDKYYNPSLKSRLTISKETSNNQVFLKITNVDTADTASYFCVQIGRDYSNYAWYFDVWGAGTTVTVSS
  Binning with SC16.34 or SC16.56: not to bin with SC16.34 or SC16.56

— patent publication US20190201542A1, “ANTI-DLL3 DRUG CONJUGATES FOR TREATING TUMORS AT RISK OF NEUROENDOCRINE TRANSITION” (ABBVIE STEMCENTRX LLC, priority 2016, published 2019)
